Reference: publication PMC7935256 (PLoS Pathogens, 2021)

How the values were obtained:
Assay in all cases: BLI
Conditions in all cases: both partners purified
[1] = biological target: DENV2 NGC strain recombinant E protein ectodomain (residues 1-394) (dengue virus serotype 2, strain NGC)
[2] = biological target: T1, DENV1 WestPac74 strain recombinant E protein ectodomain (residues 1-394) (dengue virus serotype 1, strain WestPac …)
T1 construct: also called DENV1 WestPac 74 rE protein; Western Pacific 1974

[3] = biological target: T2, DENV2 PVP94/07 strain recombinant E protein ectodomain (residues 1-394) (dengue virus serotype 2, strain PVP94/07)
T2 construct: also called DENV2 PVP94/07 rE protein

B1: human monoclonal antibody (HMAb) 1C19, IgG (antibody, V domains shown)
VH: QVQLVESGGGVVQPGRSLRLSCAASGFIFSNYGMHWVRQAPGKGLEWVAVISYDGSDKRYADSVRGRFTISRDNSKNTLFLQVTSLRAEDTAVYYCAKELSGYDPGFEYWGQGTPVTVSS
VL: DIQMTQSPSTLSASVGDRVTITCRASQSINTWLAWYQQKPGKAPKLLIYKASSLESGVPSRFSGSGSGTEFTLTISSLQPDDFATYYCQQYESYATFGQGTKVDIK
notes: also called IgG 1C19
- Kd [1]: 4.55 nM
- Kd [2]: 0.844 nM
- Kd [3]: 19 nM
